Assay results: US20240383999A1 (University of Texas, published 2024)

T1: Human recombinant CD5L protein (Sino Biological, Catalog Number 10791-H08H) (human, UniProt O43866 20-347)
T1 construct: Bought protein; also called human CD5L; CD5L-His; not shown: 6xHIS-tag
T1 sequence (looked up): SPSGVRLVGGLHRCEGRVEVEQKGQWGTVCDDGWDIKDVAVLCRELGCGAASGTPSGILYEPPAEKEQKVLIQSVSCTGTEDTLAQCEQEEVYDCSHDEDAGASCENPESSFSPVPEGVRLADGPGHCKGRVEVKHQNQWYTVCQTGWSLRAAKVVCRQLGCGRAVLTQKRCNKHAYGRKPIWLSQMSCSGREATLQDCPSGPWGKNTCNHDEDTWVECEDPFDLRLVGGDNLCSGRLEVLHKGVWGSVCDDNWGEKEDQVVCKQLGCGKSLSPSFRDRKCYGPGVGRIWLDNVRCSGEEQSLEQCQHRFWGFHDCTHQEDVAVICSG


Key:
[1] = molecular target: T1, Human recombinant CD5L protein (Sino …); assay: titration ELISA, human CD5L coated on plate
Protocol: FIG. 11. […] Bound antibody was detected using a secondary antibody against rabbit IgG conjugated with HRP and TMB substrate for detection of A450 nm. EC₅₀ was estimated using GraphPad software by applying a 4-parameter fitting to calculate binding affinity of the antibodies.
Binding constants (EC₅₀) of a panel of monoclonal antibodies were estimated by titration ELISA, and the data were analyzed using the 4-parameter curve fitting with GraphPad Prism program (Table 6).

[2] = molecular target: T1, Human recombinant CD5L protein (Sino …); assay: BLI (Octet RED96), antibody on protein A biosensors, CD5L 0.1-200 nM in solution, 1:1 fit
Protocol: All experiments were performed with shaking at 1,000 rpm. Background wavelength shifts were measured from reference biosensors that were loaded only with antibody. ForteBio's data analysis software was used to fit the data to a 1:1 binding model to extract an association rate and dissociation rate.

Binder | EC50 [1] [mg/L] | Kd [2] [nM]
H-447 (antibody, V domains shown) VH: EVQLVQSGGGLVQPGGSLRLSCAASGFTVSSNYMSWVRQAPGKGLEWVSVIYSGGSTYYADSVKGRFTISRHNSKNTLYLQMNSLRAEDTAVYYCARESAVAGWGMDVWGKGTTVTVSS VL: not shown | 0.25 | 28.7
R-13 (antibody, V domains shown) VH: QSLEESGGRLVTPGTPLTLTCTVSGFSLSSYPMSWVRQAPGKGLEWIGIITSGGSIFYATWANGRFTISKTSTTVDLKITSPTTEDTATYFCARGYSSGTMMSSNLWGQGTLVTVSS VL: ELVLTQTPASVSEPVGGTVTIKCQASESISTYLSWYQQKPGQRPKLLIYRASTLESGVPSRFKGSGSGTEYTLTISGVQCADAATYYCQQGYTYKNVDNAFGGGTEVVVK | 0.116 | 1.72
R-40 (antibody, V domains shown) VH: QSVKESGGRLVKPDETLTITCTVSGIDLSRYSIQWVRQAPGGGLQWIGVMSIGSSAYYANWAKGRFTISKTSSTTVDLTMTSLTAADTATYFCARSNLYRGAFDPWGPGTLVTISS VL: ELVMTQTPASVEAAVGGTVTIKCQSSESVYKNNYLSWYQLKPGQPPKLLFYSASTLASRVPSRFSGSGSGTQFTLTISDLECDDAATYYCAGYYGSSSVDRYTFGGGTEVEIK | 0.21 | 1.74

More lines, in order of falling Kd [2], values ahead:

EC50 [1] [mg/L] | Kd [2] [nM] | Binder
0.0788 | 2.97 | R-45 (antibody, V domains shown) VH: QSVKESGGRLVTPGTPLTLTCTVSGFSINDFHMCWVRQAPGKGLEYIGMIGTGGSAYYATWTKGRFTISRTSTTVDLKITSPTTEDTATYFCARRDWSDGGYSLLWGQGTLVTVSS VL: ELDLTQTPASVSEPVGGTVTIKCQASQSIRTYLNWYQQKPGQPPKLLIYSASTLASGIPSRFKGSGSGTQFTLTISDLECADAATYYCQQGYYWSDVENTFGGGTEVEIN
0.183 | 2.18 | R-3 (antibody, V domains shown) VH: QSLKESGGRLVKPDETLTITCTASGIDLTSGTVGWFRQAPGKGLEWIGIIRGSGSTYYATWAKGRFTISKTSTTVDLKLTSPTTEDTATYLCARAFPGYNTFFNFWGQGTLVTISS VL: ELDLTQTPSSVEAAVGGTVTIKCQASESIGNALAWYQQKPGQPPKLLIWKASNLESGVPPRFKGSGSGTEFTLTISDLECADAATYYCQRYYFNGVSVEIVFGGGTEVVVKG
0.22 | 1.35 | R-34 (antibody, V domains shown) VH: QSVKESGGRLVTPGTPLTLTCTVSGFSLSSSGMSWVRQAPGKGLEWIGLTFPSGSASYASWAKGRFTVSRTSTTVDLNLTSPTTEDTATYFCAHVGATTGRDFWGQGTLVTVSS VL: ELVMTQTASSVSAAVGGTVTISCQSSQNIYNNRWSWYQQKPGQPPKLLIYQASTLASGVPSRFKGSGSGTQFTLTISGVQCDDAATYYCAGGYSGTIFTFGGGTELEIK
0.169 | 0.78 | R-35 (antibody, V domains shown, also called anti-CD5L antibody R-35; CD5L antibody (R-35)) VH: AAVKESGGRLVTPGTPLTLTCTVSGIDLSDYYMTWVRQAPGKGLEYIGIIYASGNAYFASWAKGRFTISRTSSTTVDLNVASPTTEDTATYFCARNIGGSSNLWGQGTLVTVSS VL: ELDMTQTPASVSEPVGGTVTIKCQASERIYNNLAWYQQKPGQPPKLLFYSASTLASGVPSRFKGSGSGTEFTLTISDLECADAAIYYCQCTGYGTTYGLVFGGGTEVEI
